Results on 1 substance are retold here after publication PMC11343202.

This assay addresses GFP with a c-Myc nuclear localization signal at the C-terminus (GFP-NLS). The assay is described as follows: label-free LC MS/MS.

“AAV-DJ capsid incorporating VP1 with a GFPnb inserted at position H631, supplemented with wild type VP2/VP3 (complex)” showed a GFP:capsid (GFP-NLS per capsid) of 1 to 3.
